Measurements from the RNAGym collection of RNA variant scans (doi:10.1073/pnas.2313332121).

B1: TPR t1 (parent)
chain: GACCAAUCUGCCCUCAGAGCUCGAGAACAUCUUCGGAUGCAGAGGAGGCAGGCUUCGGUGGCGCGAUAGCGCCAACGUCCUCAACCUCCAAUGCAUCCCACCACAUGAUGAUGCCUGAAGAGCCUUGGUUUUUUG

Variants of: B1
Assay: polymerase ribozyme fitness, log enrichment relative to wild type (log ratio); higher = more active; in vitro selection for triplet polymerase activity
Outline: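 Fitness is a logarithmic measure of how a genotype enriched relative to the wild type, with replicate averages weighted by inverse variance. The logarithm uses base 2, and enrichment came from Illumina sequencing of input and output libraries. Those libraries were PCR-built, transcribed mutants of each subunit of a heterodimeric triplet polymerase ribozyme, passed through one triplicate in vitro selection round that included frozen incubation at −7 °C, gel excision of extended constructs and streptavidin-bead capture. Genotypes were kept only if they had ≥10 input reads and ≥1 read per output.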

Variant	polymerase ribozyme fitness (log ratio)
G60A C82A U129G	-1.13
U59C G117C	-3.91
U59C G117U	-2.88
G60A C73G G110A U112C	-2.14
U59G G71U G120C U130A	-4.75
G60A C88G G120C	-0.823
G58U C94U C101G	-1.75
U59A C70U U112A	0.172
G60A C80U C89U U129G	-3.44
U59G U112G G113A G120U	-4.31
G58U U106C C124U U130A	-0.269
G60A C82G C101U G120A G128U	-2.12
G57U C72U U109A C114G	-5.21
G58A C72U	0.786
G58C U59G C70A C86G	-2.75
G57U G110A	-1.16
G60C	-0.366
G60A	-0.00692
G58C G63C C82A U106G G113U	-5.77
G57U C72G C94U G122A	-3
U59A C62U C82U G120A	0.193
G60A G63U U87A U92A C102A C115G G128U	-5.66
U59A C89A C101U G113U	-3.68
G57U C99A C124A	-4.71

Variant	polymerase ribozyme fitness (log ratio)
G57U C62G	-1.62
G58A C72G G127A	-1.35
G58A C70G G120A U129A	-3.9
G58C A95G U109A	-5.73
G58A C72G C82A G110C G113A	-6.33
G58C C73A U81A C89A	-3.31
G58C C97A A103U G120C	-6.84
U59G U96A G128A	-2.77
G57U G60C G61C G113A	-4.44
U59C U109G	-5.76
G58C C86A C115U	-2.72
G60A C79U C98G C99A C123G	-2.67
G58A G61A C73A U92A	-5.1
G60A U81G A91G U116C	-7.03
U59A A91G A100U G113A	-3.07
G58A C99U G122A	-5.04
U59G U81A	-0.876
G60A C86A C98G U109A G117U	-6.71
G57U G60A C80U G122U	-2.06
G57U U96C G110U	-2.25
G58C C123G	1.75
G60A G61C U92C G113A	-3.6
G58U G60C G117U C123A	-2.45
U59G C73U U87G U116A	-4.15

Variant	polymerase ribozyme fitness (log ratio)
G58A U109A	-4.85
G60A C80G	-4.53
G60A C80A	-3.69
G60A C80U C89U	-2.13
G57U C73G	-0.228
U59A C76U	-0.808
G58U G69A A111C	-5.38
G60A C79U C80A A121G	-3.77
U59A U116G G120C	-0.387
U59C C86U G127C	-2.09
G57U G60C U96G	-2.78
G58A G60A A68G A100U C115A	-5.02
G60A G120A	0.658
G57U G71U U87G	-0.217
G58A G60A C99U U130A	-5.34
G60A G93A U131A	-0.952
G58A C82U G93U C94U U96C C123U	-3.17
G60A G71A A90U C94A G110C	-6.47
G57U G61C G135A	-2.69
U59C U130G	-0.745
G60A C97G	-4.02
G60A C97A	-4.41
G57U C94A C98U C115U	-5.64
G60A U87A	-0.0639

Variant	polymerase ribozyme fitness (log ratio)
G60A U109A	-5.33
G58A C99U	-2.8
G60A C98U	-0.842
G60C A84C C86U	-1.01
G60A C89U A95U	-1.24
G57U C88A	-1.1
G57U C88G	-1.99
G57U U87A	-0.845
G57U U87G	0.0269
G58A A91C C101A C123G	-1.04
G58A G117A G120A U132C	-3.08
U59G G113A A121U C123A	-1.97
G60A U131A	0.546
G58C G60U G93U U96G	-1.73
G57U G117A G135U	-2.73
G58C C72U C123G G128A	0.86
U59A C72A	-1.18
G60A A95G C104A U132C	-2.06
G60A C82A C85A G120A	-0.412
U59A A105G G113A U130C G135U	-5.1
G57U G120C	0.593
G57U C73U G127U	-1.28
G60C A68G	-4.8
G60A U78G G113C U133G	-3.73

Variant	polymerase ribozyme fitness (log ratio)
U59A U129G	-1.18
G60A A83C C101G G128C	-4.75
U59A U81A G107A C114U	-2.96
G60A C82U U131A	-0.161
G58C C97U U116G G135C	-3.26
G58C C62U U133A	-0.0723
G58C G71U C101G U112C U129G	-0.74
U59G G113U U126A	-3.87
G58U A75U C79A C89A G120C C123U	-4.72
G60A C89U C124A	0.913
U59A G71A A91G A100U G113A	-4.54
G58A A91C C101A	-1.1
G60C A100U C114A	-3.1
U59A C82G	-0.809
U59A C82U	-0.407
U59A A111C G120A	-0.645
G60A U87A A119G U125C	-0.987
G58A G69A C88G A121U	-2.86
G60A G93A G120A	-0.129
G60A C86A	-0.942
G60A C115A G120U	-0.811
G60A U130C	-0.0253
G57U C123A	0.124
U59G G113A	-1.96

Variant	polymerase ribozyme fitness (log ratio)
G57U A68G	-3.27
G60A C124U	1.27
G60A C124A	1.81
G60A G113C	-2.12
G58U C99U G117C U131C	-5.92
G58A C64U A66U U130A	-2.13
G60A G61C G110C	-5.74
G60A C98A C123U	-5.08
G58C A111G G120A	-1.36
G60A C114G	-2.53
G60C A66U G113A U126C	-4.03
G57U U92A G120A A121C	-2.28
G60A G120U A121C	0.445
U59A C79U G110A A119C	-3.05
G60A C82G C86A U87G	-1.52
G58C G71U C82G C88G	-2.93
G60A A74G	-2.01
G57U G60U C123U	0.317
G60A C101A	-1.57
G58U C115A	-0.324
U59G A66C C101G A121C U132C	-2.35
G58C G113U	-2.87
U59A G60U C89G C97U	-2.98
G60A U125G	-0.67

Variant	polymerase ribozyme fitness (log ratio)
G58C G61A U92C	-1.98
G57U U87A C89G C104U	-4.28
G60A C115A G117A	-4.99
U59C C79A G122A C123A U132A	-2.39
G60A C94A G110U	-3.31
U59A C64U C85A G110U U133C	-2.9
G58U A111C	-0.00673
U59A U125A	-0.568
U59A U125G	-0.415
G60A A105G G120U U133G G135U	-3.99
U59G	-0.0797
U59C	-0.0998
U59A	0.0811
U59A C62G U87A U129C U130G	-4.15
G58A C70U C79G A100C	-6.76
G58C A68G C86A C115U	-6.11
G60A C114G U132G	-4.75
G60A U78A C123U	0.832
U59A C80U	-0.689
G57U C72U	-0.387
G60A G69C C80G G110U G120C	-6.82
U59A A74G C114G U126A G128A	-3.97
G58C U116C	-0.944
